Data as given in the supplement of paper PMC10567573.

B1: ANKRD9 (parent)
chain: LLEDMRASEAFHWDERGRAAAYSP
B2: EPB41L3 (parent)
chain: SELGDYDPDECGSDYISEFRFAPN

Variants of: B1
Test: protein stability index of a GFP-peptide fusion (GPS, HEK-293T) (PSI 1-6); higher = more stable
Conditions: c terminus: a fixed tail appended
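Also: lentivirally expressed fusions sorted by FACS into six bins by GFP to DsRed ratio, PSI derived from sequencing read proportions per bin multiplied by bin number.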

Variant | protein stability index
LLEDWRASEAFHWDERGRAAAYSP | 3.64
LLEDYRASEAFHWDERGRAAAYSP | 3.83
LLEDLRASEAFHWDERGRAAAYSP | 1.6
LLEDIRASEAFHWDERGRAAAYSP | 2.89
LLEDERASEAFHWDERGRAAAYSP | 4.66
LLEDARASEAFHWDERGRAAAYSP | 3.92
LLEDPRASEAFHWDERGRAAAYSP | 4.09
LLEDGRASEAFHWDERGRAAAYSP | 3.94
LLEDNRASEAFHWDERGRAAAYSP | 4.1
LLEDSRASEAFHWDERGRAAAYSP | 3.3
LLEDKRASEAFHWDERGRAAAYSP | 3.97
LLEDHRASEAFHWDERGRAAAYSP | 3.39
LLEDVRASEAFHWDERGRAAAYSP | 3.77
LLEDFRASEAFHWDERGRAAAYSP | 3.94
LLEDQRASEAFHWDERGRAAAYSP | 3.91
LLEDTRASEAFHWDERGRAAAYSP | 4.12
LLDDMRASEAFHWDERGRAAAYSP | 1.92
LLTDMRASEAFHWDERGRAAAYSP | 2.31
LLCDMRASEAFHWDERGRAAAYSP | 1.51
LLMDMRASEAFHWDERGRAAAYSP | 1.15
LLKDMRASEAFHWDERGRAAAYSP | 2.49
LLQDMRASEAFHWDERGRAAAYSP | 2.38

Variant | protein stability index
LLLDMRASEAFHWDERGRAAAYSP | 3.26
LLIDMRASEAFHWDERGRAAAYSP | 1.85
LLPDMRASEAFHWDERGRAAAYSP | 4.09
LLRDMRASEAFHWDERGRAAAYSP | 3.42
LLYDMRASEAFHWDERGRAAAYSP | 1.55
LLADMRASEAFHWDERGRAAAYSP | 2.72
LLHDMRASEAFHWDERGRAAAYSP | 2.19
LLSDMRASEAFHWDERGRAAAYSP | 1.43
LLNDMRASEAFHWDERGRAAAYSP | 1.32
LLFDMRASEAFHWDERGRAAAYSP | 2.08
LLETMRASEAFHWDERGRAAAYSP | 2.62
LLESMRASEAFHWDERGRAAAYSP | 2.23
LLECMRASEAFHWDERGRAAAYSP | 2.44
LLEAMRASEAFHWDERGRAAAYSP | 2.36
LLELMRASEAFHWDERGRAAAYSP | 1.64
LLEYMRASEAFHWDERGRAAAYSP | 1.9
LLEMMRASEAFHWDERGRAAAYSP | 1.44
LLEVMRASEAFHWDERGRAAAYSP | 2.19
LLEKMRASEAFHWDERGRAAAYSP | 2.37
LLEIMRASEAFHWDERGRAAAYSP | 2
LLEEMRASEAFHWDERGRAAAYSP | 2.03
LLEFMRASEAFHWDERGRAAAYSP | 2

Variant | protein stability index
LLENMRASEAFHWDERGRAAAYSP | 2.5
LLEGMRASEAFHWDERGRAAAYSP | 2.52
LLEHMRASEAFHWDERGRAAAYSP | 2.69
LLEQMRASEAFHWDERGRAAAYSP | 2.14
LLEPMRASEAFHWDERGRAAAYSP | 3.91
LLEWMRASEAFHWDERGRAAAYSP | 1.52
LNEDMRASEAFHWDERGRAAAYSP | 3.3
LMEDMRASEAFHWDERGRAAAYSP | 2.67
LSEDMRASEAFHWDERGRAAAYSP | 3.94
LKEDMRASEAFHWDERGRAAAYSP | 3.25
LPEDMRASEAFHWDERGRAAAYSP | 4.37
LFEDMRASEAFHWDERGRAAAYSP | 2.53
LVEDMRASEAFHWDERGRAAAYSP | 3.17
LDEDMRASEAFHWDERGRAAAYSP | 3.98
LWEDMRASEAFHWDERGRAAAYSP | 1.9
LCEDMRASEAFHWDERGRAAAYSP | 4.06
LHEDMRASEAFHWDERGRAAAYSP | 4.13
LTEDMRASEAFHWDERGRAAAYSP | 3.88
LREDMRASEAFHWDERGRAAAYSP | 3.27
LAEDMRASEAFHWDERGRAAAYSP | 3.15
LYEDMRASEAFHWDERGRAAAYSP | 1.71
LQEDMRASEAFHWDERGRAAAYSP | 3.66

Variant | protein stability index
LEEDMRASEAFHWDERGRAAAYSP | 4.52
LGEDMRASEAFHWDERGRAAAYSP | 3.74
LIEDMRASEAFHWDERGRAAAYSP | 4.67
RLEDMRASEAFHWDERGRAAAYSP | 3.93
YLEDMRASEAFHWDERGRAAAYSP | 3.54
FLEDMRASEAFHWDERGRAAAYSP | 3.36
QLEDMRASEAFHWDERGRAAAYSP | 4.37
KLEDMRASEAFHWDERGRAAAYSP | 3.4
PLEDMRASEAFHWDERGRAAAYSP | 4.77
NLEDMRASEAFHWDERGRAAAYSP | 3.97
DLEDMRASEAFHWDERGRAAAYSP | 4.18
WLEDMRASEAFHWDERGRAAAYSP | 3.01
TLEDMRASEAFHWDERGRAAAYSP | 4.04
MLEDMRASEAFHWDERGRAAAYSP | 2.52
CLEDMRASEAFHWDERGRAAAYSP | 3.2
ELEDMRASEAFHWDERGRAAAYSP | 4.29
VLEDMRASEAFHWDERGRAAAYSP | 2.91
ILEDMRASEAFHWDERGRAAAYSP | 2.44
HLEDMRASEAFHWDERGRAAAYSP | 4.71
SLEDMRASEAFHWDERGRAAAYSP | 4.22
ALEDMRASEAFHWDERGRAAAYSP | 3.72

Variants of: B2
Test: as above
Conditions: c terminus: a fixed tail appended

Variant | protein stability index
SELGDYDPDECGSDYISEFRHAPN | 4.17
SELGDYDPDECGSDYISEFRYAPN | 4.55
SELGDYDPDECGSDYISEFRQAPN | 4.97
SELGDYDPDECGSDYISEFRRAPN | 4.64
SELGDYDPDECGSDYISEFRPAPN | 4.96
SELGDYDPDECGSDYISEFRNAPN | 4.74
SELGDYDPDECGSDYISEFREAPN | 4.78
SELGDYDPDECGSDYISEFRGAPN | 5.01
SELGDYDPDECGSDYISEFRSAPN | 5.07
SELGDYDPDECGSDYISEFRIAPN | 4.38
SELGDYDPDECGSDYISEFRWAPN | 4.24
SELGDYDPDECGSDYISEFRTAPN | 4.87
SELGDYDPDECGSDYISEFRDAPN | 4.68
SELGDYDPDECGSDYISEFRCAPN | 4.69
SELGDYDPDECGSDYISEFRVAPN | 4.52
SELGDYDPDECGSDYISEFRMAPN | 4.43
SELGDYDPDECGSDYISEFRAAPN | 4.75
SELGDYDPDECGSDYISEFRKAPN | 5.22
SELGDYDPDECGSDYISEFRLAPN | 4.61
SELGDYDPDECGSDYISEFRFFPN | 3.5
SELGDYDPDECGSDYISEFRFGPN | 4.21
SELGDYDPDECGSDYISEFRFDPN | 4.92
SELGDYDPDECGSDYISEFRFIPN | 2.24
SELGDYDPDECGSDYISEFRFCPN | 2.59
SELGDYDPDECGSDYISEFRFNPN | 3.46
SELGDYDPDECGSDYISEFRFVPN | 3.42

Variant | protein stability index
SELGDYDPDECGSDYISEFRFPPN | 4
SELGDYDPDECGSDYISEFRFLPN | 3.73
SELGDYDPDECGSDYISEFRFQPN | 2.39
SELGDYDPDECGSDYISEFRFWPN | 3.47
SELGDYDPDECGSDYISEFRFRPN | 4.12
SELGDYDPDECGSDYISEFRFSPN | 3.33
SELGDYDPDECGSDYISEFRFMPN | 3.48
SELGDYDPDECGSDYISEFRFHPN | 2.13
SELGDYDPDECGSDYISEFRFTPN | 1.85
SELGDYDPDECGSDYISEFRFKPN | 4.27
SELGDYDPDECGSDYISEFRFYPN | 3.51
SELGDYDPDECGSDYISEFRFEPN | 4.24
SELGDYDPDECGSDYISEFPFAPN | 4.81
SELGDYDPDECGSDYISEFKFAPN | 4.53
SELGDYDPDECGSDYISEFMFAPN | 3.92
SELGDYDPDECGSDYISEFFFAPN | 4.09
SELGDYDPDECGSDYISEFNFAPN | 4.54
SELGDYDPDECGSDYISEFVFAPN | 4.4
SELGDYDPDECGSDYISEFLFAPN | 4.02
SELGDYDPDECGSDYISEFEFAPN | 5.02
SELGDYDPDECGSDYISEFDFAPN | 4.72
SELGDYDPDECGSDYISEFSFAPN | 4.68
SELGDYDPDECGSDYISEFTFAPN | 4.18
SELGDYDPDECGSDYISEFQFAPN | 4.7
SELGDYDPDECGSDYISEFGFAPN | 4.79
SELGDYDPDECGSDYISEFAFAPN | 4.25

Variant | protein stability index
SELGDYDPDECGSDYISEFYFAPN | 3.75
SELGDYDPDECGSDYISEFCFAPN | 4.56
SELGDYDPDECGSDYISEFIFAPN | 3.75
SELGDYDPDECGSDYISEFWFAPN | 3.92
SELGDYDPDECGSDYISEFHFAPN | 4.32
SELGDYDPDECGSDYISETRFAPN | 4.97
SELGDYDPDECGSDYISEWRFAPN | 2.61
SELGDYDPDECGSDYISEVRFAPN | 4.38
SELGDYDPDECGSDYISERRFAPN | 4.78
SELGDYDPDECGSDYISEYRFAPN | 4.57
SELGDYDPDECGSDYISESRFAPN | 5.13
SELGDYDPDECGSDYISEFRFAPP | 2.84
SELGDYDPDECGSDYISEFRFAPR | 2.44
SELGDYDPDECGSDYISEFRFAPM | 1.79
SELGDYDPDECGSDYISEFRFAPI | 2.55
SELGDYDPDECGSDYISEFRFAPW | 2.45
SELGDYDPDECGSDYISEFRFAPL | 2.02
SELGDYDPDECGSDYISEFRFAPQ | 2.09
SELGDYDPDECGSDYISEFRFAPD | 2.89
SELGDYDPDECGSDYISEFRFAPV | 2.55
SELGDYDPDECGSDYISEFRFAPF | 2.25
SELGDYDPDECGSDYISEFRFAPA | 2.6
SELGDYDPDECGSDYISEFRFAPK | 1.69
SELGDYDPDECGSDYISEFRFAPT | 2.12
SELGDYDPDECGSDYISEFRFAPS | 1.87
SELGDYDPDECGSDYISEFRFAPC | 1.64

Variant | protein stability index
SELGDYDPDECGSDYISEFRFAPG | 2.33
SELGDYDPDECGSDYISEFRFAPH | 1.66
SELGDYDPDECGSDYISEFRFAPE | 3.33
SELGDYDPDECGSDYISEFRFAPY | 2.15
SELGDYDPDECGSDYISEFRFAFN | 2.96
SELGDYDPDECGSDYISEFRFACN | 2.12
SELGDYDPDECGSDYISEFRFAMN | 3.26
SELGDYDPDECGSDYISEFRFASN | 2.51
SELGDYDPDECGSDYISEFRFADN | 4
SELGDYDPDECGSDYISEFRFAKN | 2.68
SELGDYDPDECGSDYISEFRFAGN | 2.37
SELGDYDPDECGSDYISEFRFAYN | 2.89
SELGDYDPDECGSDYISEFRFARN | 1.53
SELGDYDPDECGSDYISEFRFAVN | 2.53
SELGDYDPDECGSDYISEFRFAWN | 2.47
SELGDYDPDECGSDYISEFRFAAN | 2.48
SELGDYDPDECGSDYISEFRFAEN | 4.66
SELGDYDPDECGSDYISEFRFALN | 2.81
SELGDYDPDECGSDYISEFRFANN | 2.42
SELGDYDPDECGSDYISEFRFAHN | 2.44
SELGDYDPDECGSDYISEFRFATN | 3.15
SELGDYDPDECGSDYISEFRFAQN | 2.92
SELGDYDPDECGSDYISEFRFAIN | 2.7
